Experimental findings from patent publication US20220073599A1 (Hoffmann-La Roche, published 2022) are described below.

Experiment [1] concerns the target T1, human VEGFA-121-His (human, UniProt P15692 181-395).
T1 construct: Prepared in-house; not shown: His tag
T1 sequence: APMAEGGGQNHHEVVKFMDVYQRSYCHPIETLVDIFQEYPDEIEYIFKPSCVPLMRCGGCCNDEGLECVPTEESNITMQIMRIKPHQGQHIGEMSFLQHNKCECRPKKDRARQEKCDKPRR
The experiment can be described thus: KinExA equilibrium titration in solution, VEGFA-121.

The next experiment has as its target T2, human Ang2-RBD-muFc (human, UniProt O15123 275-496, limits assumed).
T2 construct: also called Human ANG2 (KinExA); not shown: murine Fc (muFc)
T2 sequence: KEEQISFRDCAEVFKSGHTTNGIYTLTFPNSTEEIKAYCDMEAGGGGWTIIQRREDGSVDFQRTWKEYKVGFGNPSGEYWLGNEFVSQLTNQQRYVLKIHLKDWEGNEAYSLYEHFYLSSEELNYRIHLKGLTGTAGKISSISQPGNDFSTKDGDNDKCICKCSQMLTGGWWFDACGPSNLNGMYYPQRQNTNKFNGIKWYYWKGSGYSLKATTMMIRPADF
The experiment can be described thus: KinExA, human ANG2 (Ang2-RBD-muFc) by the table's title; the column's head prints VEGFA-121. How it is done: All KinExA® experiments were performed at room temperature (RT) using PBS pH 7.4 with 0.01% BSA and 0.01% Tween® 20 (BioRad, #161-0781) as running buffer. […] A flow rate of 0.25 ml/min was used. A constant amount of Ang2-RBD-muFc (50 pM and in a second experiment 500 pM) was titrated with tested antibody by twofold serial dilution starting at 4 nM (concentration range 1.95 pM-4000 pM). Antigen-antibody complexes were incubated at RT for at least 8 h to allow equilibrium to be reached. Equilibrated mixtures were then drawn through a column of Anti-Ang2 antibody (MAB098) coupled beads in the KinExA® system at a volume of 750 μl for 50 pM constant Ang2 and at a volume of 188 μl for 500 pM constant Ang2 permitting unbound Ang2 to be captured by the beads without perturbing the equilibrium state of the solution. Bound Ang2 was detected using a second biotinylated anti-Ang2 antibody (BAM0981) with a concentration of 250 ng/ml and following by an injection of 250 ng/ml Streptavidin Alexa Fluor™ 647 conjugate in sample buffer. Each sample was measured in duplicates for all equilibrium experiments. The KD was obtained from non-linear regression analysis of the data using a one-site homogeneous binding model contained within the KinExA® software (Version 4.0.11) using the “standard analysis” method. […]
For orientation: Kinetic exclusion samples the free partner from a solution-phase mixture.

Experiment [2] addresses T1, human VEGFA-121-His. The experiment can be described thus: SPR, VEGF-A121-His captured by anti-His antibody, Fab injected, single cycle kinetics; marked outside of Biacore specification; exponent as printed. How it is done:
An anti-His capturing antibody (GE Healthcare 28995056) was immobilized to a Series S Sensor Chip C1 (GE Healthcare BR100535) using standard amine coupling chemistry resulting in a surface density of approximately 600 resonance units (RU). As running and dilution buffer, HBS-P+ (10 mM HEPES, 150 mM NaCl pH 7.4, 0.05% Surfactant P20) was used. […] A dilution series of the tested antibody (3.7-300 nM, 1:3 dilution) was successively injected for 60 s each, dissociation was monitored for 3600 s at a flow rate of 30 μl/min (single cycle kinetics). The surface was regenerated by injecting 10 mM Glycine pH 1.5 for 60 s at a flow of 5 μl/min. […] Curve fitting was performed using the 1:1 Langmuir binding model within the Biacore® evaluation software.
Binding kinetics to human VEGF-A and human ANG2 for the candidate antibodies were assessed as described above using the indicated Fab fragments (amino acid sequence as illustrated in Table 4).

In experiment [3] the target is T3, human Ang2-RBD (human, UniProt O15123 275-496, limits assumed).
T3 construct: also called Human ANG2 (SPR); Angiopoietin 2-RBD
T3 sequence: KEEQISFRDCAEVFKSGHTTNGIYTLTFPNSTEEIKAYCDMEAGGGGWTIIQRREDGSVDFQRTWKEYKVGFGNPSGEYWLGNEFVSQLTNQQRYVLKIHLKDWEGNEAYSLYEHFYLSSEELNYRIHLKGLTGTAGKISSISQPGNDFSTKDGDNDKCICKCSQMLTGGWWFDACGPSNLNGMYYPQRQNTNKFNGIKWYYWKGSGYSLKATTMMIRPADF
The experiment in a line: SPR, Fab captured by anti-Fab antibody, Ang2-RBD injected, 25 C, 1:1 fit. Here is the method:
(§1) An anti-Fab capturing antibody (GE Healthcare 28958325) was immobilized to a Series S Sensor Chip C1 (GE Healthcare BR100535) using standard amine coupling chemistry resulting in a surface density of approximately 800 resonance units (RU). As running and dilution buffer, HBS-P+ (10 mM HEPES, 150 mM NaCl pH 7.4, 0.05% Surfactant P20) was used, the temperature of measurement was 25° C. The tested antibody was captured by injecting a 50 nM solution for 60 sec at a flow of 5 μl/min. Association was measured by injection of human Ang2-RBD in various concentrations in solution for 180 sec at a flow of 30 μl/min (0.07 nM-50 nM, 1:3 dilution). The dissociation phase was monitored for up to 900 sec and triggered by switching from the sample solution to running buffer at a flow rate of 30 μl/min. The surface was regenerated by injection of 10 mM Glycine pH 2.1 for 60 s at a flow rate of 30 μl/min. Bulk refractive index differences were corrected by subtracting blank injections and by subtracting the response obtained from the reference flow cell without captured tested antibody. Curve fitting was performed using the 1:1 Langmuir binding model within the Biacore® evaluation software.
(In general: Surface plasmon resonance follows binding to a sensor surface in real time, without labels.)

The target of experiment [4] is T3, human Ang2-RBD. The experiment in a line: SPR, Fab captured by anti-Fab antibody, Ang2-RBD injected, 25 C. How it is done: as §1

B1: bispecific anti-VEGF-A/anti-ANG2 Fab fragment P1AD9820 (Fab, V domains shown)
VH: SEHLVESGGGLVKPGGSLRLSCATADFFEYDDMSWVRQAPGKGLEWVGSISPKGDHKYLNTKFIGRFTISRDDSKNTLYLQMNSLRAEDTAVYYCARDVGFFDWWGQGTLVTVSS
VL: AIYMHQEPSSLSASVGDRVTITCHGSYWLNSEVAWYQQKPGKAPKLLIFDGDFKVYEVPSRFSGSGSHEDYTLTISSLQPEDFATYYCQQYRYHPYTFGHGTKVEIKR
notes: Bispecific Fab with two paratopes in one VH/VL pair; also called P1AD9820 Fab
Turning to B1, the figures for the Kd with human VEGFA-121-His [1] and with human Ang2-RBD-muFc were approximately 4 pM and approximately 2 pM, respectively. The same molecule displayed a koff in the experiment with human VEGFA-121-His [2] of 5.82e-06 s⁻¹.

B2: bispecific anti-VEGF-A/anti-ANG2 Fab fragment P1AA8906 (Fab, V domains shown)
VH: DFQLVESGGGLVKPGGSLRLSCAASYEFEYDDMSWVRQAPGKGLEWVGSISPKGGSTYYNTKFIGRFTISRDNSKNTLYLQMNSLRAEDTAVYYCARDVGFFDMWGQGTLVTVSS
VL: AIYMHQEPSSLSASVGDRVTITCHGSYWLSNYLAWYQQKPGKAPKLLIFDARWLVHGVPSRFSGSGSHEDYTLTISSLQPEDFATYYCQQYRYHPYTFGHGTKVEIKR
notes: Bispecific Fab with two paratopes in one VH/VL pair (DutaFab); CH1 and Ckappa
In the experiment with human Ang2-RBD [3], B2 displayed a Kd of 4550 pM, a koff of 0.032 s⁻¹ and a kon of 7.03e+06 M⁻¹ s⁻¹. Besides, the “t1/2” value in the experiment with human Ang2-RBD [4] turned out to be 24 s.

What is called Kd is the equilibrium constant for the complex coming apart. Usually koff stands for the rate constant with which the complex falls apart. A low value points to a long-lived complex. The term kon denotes the second-order rate constant of association. Higher therefore signals fast association.
